Reference: paper PMC4417048 (Nature cell biology, 2015)
Values belong to the molecule of their own block, whether it stands above or below them.

What was measured:
[1] = molecular target: Syndetin (endogenous, human cells) (human (endogenous in H4 and HeLa)) (UniProt Q96JG6); experiment: sedimentation velocity on glycerol gradients + SEC
[2] = molecular target: T1, Syndetin (endogenous, human cells) (human (endogenous in H4 and HeLa), UniProt Q96JG6-1 1-964); experiment: sedimentation velocity on glycerol gradients + SEC
T1 sequence: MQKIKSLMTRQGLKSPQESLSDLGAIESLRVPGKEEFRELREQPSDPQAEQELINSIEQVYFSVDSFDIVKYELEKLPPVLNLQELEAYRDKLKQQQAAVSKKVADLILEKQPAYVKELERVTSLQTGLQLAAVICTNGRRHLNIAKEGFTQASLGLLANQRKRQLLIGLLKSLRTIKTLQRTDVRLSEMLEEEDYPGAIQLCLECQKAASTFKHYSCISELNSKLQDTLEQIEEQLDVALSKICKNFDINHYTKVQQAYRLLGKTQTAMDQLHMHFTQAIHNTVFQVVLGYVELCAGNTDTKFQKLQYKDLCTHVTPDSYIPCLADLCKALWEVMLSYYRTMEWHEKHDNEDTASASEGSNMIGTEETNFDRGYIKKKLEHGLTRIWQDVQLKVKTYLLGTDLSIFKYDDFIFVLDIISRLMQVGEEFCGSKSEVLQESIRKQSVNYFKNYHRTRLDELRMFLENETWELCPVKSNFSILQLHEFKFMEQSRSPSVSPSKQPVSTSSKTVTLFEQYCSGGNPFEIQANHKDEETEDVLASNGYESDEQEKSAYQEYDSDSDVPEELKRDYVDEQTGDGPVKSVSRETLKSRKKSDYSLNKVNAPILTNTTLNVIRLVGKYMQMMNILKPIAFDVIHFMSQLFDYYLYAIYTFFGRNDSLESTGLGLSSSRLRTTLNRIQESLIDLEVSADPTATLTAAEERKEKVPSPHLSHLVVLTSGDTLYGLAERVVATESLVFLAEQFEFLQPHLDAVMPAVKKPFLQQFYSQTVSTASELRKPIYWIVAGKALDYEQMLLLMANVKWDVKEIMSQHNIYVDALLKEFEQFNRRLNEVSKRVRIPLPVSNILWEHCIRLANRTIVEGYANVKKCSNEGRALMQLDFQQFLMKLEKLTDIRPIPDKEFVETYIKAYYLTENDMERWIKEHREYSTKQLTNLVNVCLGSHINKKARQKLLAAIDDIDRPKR

stoichiometry N [1]: 1
Molecule: Vps53 (endogenous, human cells) (from UniProt Q5VIR6 1-832) (natural protein)

stoichiometry N [2]: 1
B1: Ang2 (endogenous, human cells) (natural protein)
chain: MAAAAAAGPSPGSGPGDSPEGPEGEAPERRRKAHGMLKLYYGLSEGEAAGRPAGPDPLDPTDLNGAHFDPEVYLDKLRRECPLAQLMDSETDMVRQIRALDSDMQTLVYENYNKFISATDTIRKMKNDFRKMEDEMDRLATNMAVITDFSARISATLQDRHERITKLAGVHALLRKLQFLFELPSRLTKCVELGAYGQAVRYQGRAQAVLQQYQHLPSFRAIQDDCQVITARLAQQLRQRFREGGSGAPEQAECVELLLALGEPAEELCEEFLAHARGRLEKELRNLEAELGPSPPAPDVLEFTDHGGSGFVGGLCQVAAAYQELFAAQGPAGAEKLAAFARQLGSRYFALVERRLAQEQGGGDNSLLVRALDRFHRRLRAPGALLAAAGLADAATEIVERVARERLGHHLQGLRAAFLGCLTDVRQALAAPRVAGKEGPGLAELLANVASSILSHIKASLAAVHLFTAKEVSFSNKPYFRGEFCSQGVREGLIVGFVHSMCQTAQSFCDSPGEKGGATPPALLLLLSRLCLDYETATISYILTLTDEQFLVQDQFPVTPVSTLCAEARETARRLLTHYVKVQGLVISQMLRKSVETRDWLSTLEPRNVRAVMKRVVEDTTAIDVQVGLLYEEGVRKAQSSDSSKRTFSVYSSSRQQGRYAPSYTPSAPMDTNLLSNIQKLFSERIDVFSPVEFNKVSVLTGIIKISLKTLLECVRLRTFGRFGLQQVQVDCHFLQLYLWRFVADEELVHLLLDEVVASAALRCPDPVPMEPSVVEVICERG

stoichiometry N [2]: 1
B2: Vps52 (endogenous, human cells) (natural protein)
chain: MAAAATMAAAARELVLRAGTSDMEEEEGPLAGGPGLQEPLQLGELDITSDEFILDEVDVHIQANLEDELVKEALKTGVDLRHYSKQVELELQQIEQKSIRDYIQESENIASLHNQITACDAVLERMEQMLGAFQSDLSSISSEIRTLQEQSGAMNIRLRNRQAVRGKLGELVDGLVVPSALVTAILEAPVTEPRFLEQLQELDAKAAAVREQEARGTAACADVRGVLDRLRVKAVTKIREFILQKIYSFRKPMTNYQIPQTALLKYRFFYQFLLGNERATAKEIRDEYVETLSKIYLSYYRSYLGRLMKVQYEEVAEKDDLMGVEDTAKKGFFSKPSLRSRNTIFTLGTRGSVISPTELEAPILVPHTAQRGEQRYPFEALFRSQHYALLDNSCREYLFICEFFVVSGPAAHDLFHAVMGRTLSMTLKHLDSYLADCYDAIAVFLCIHIVLRFRNIAAKRDVPALDRYWEQVLALLWPRFELILEMNVQSVRSTDPQRLGGLDTRPHYITRRYAEFSSALVSINQTIPNERTMQLLGQLQVEVENFVLRVAAEFSSRKEQLVFLINNYDMMLGVLMERAADDSKEVESFQQLLNARTQEFIEELLSPPFGGLVAFVKEAEALIERGQAERLRGEEARVTQLIRGFGSSWKSSVESLSQDVMRSFTNFRNGTSIIQGALTQLIQLYHRFHRVLSQPQLRALPARAELINIHHLMVELKKHKPNF
